How the values were obtained:
[1] = target: N-terminal cytoplasmic domain of the a1 isoform of subunit a of human V-ATPase (residues 1-353) (human) (UniProt Q93050); test: SPR; Biacore T100; C1, H or a1NT amine-coupled to CM5; 20 mM HEPES-NaOH, 300 mM NaCl, 1 mM DTT, 0.05% P20, pH 7.5, 10°C; KD from steady-state Req against analyte concentration, 1:1 Langmuir isotherm
[2] = target: Human V-ATPase subunit H (non-tagged) (human) (UniProt Q9UI12); test: as above
[3] = target: Human V-ATPase subunit C1 (human) (UniProt P21283); test: SPR; C1 immobilised on CM5; response at 10 µM analyte (E1G1, a1NT, or both together)
[4] = target: Human V-ATPase subunit C1 (human) (UniProt P21283); test: SPR; Biacore T100; C1, H or a1NT amine-coupled to CM5; 20 mM HEPES-NaOH, 300 mM NaCl, 1 mM DTT, 0.05% P20, pH 7.5, 10°C; KD from steady-state Req against analyte concentration, 1:1 Langmuir isotherm
[5] = target: V-ATPase a NT (Saccharomyces cerevisiae) (UniProt P32563); test: ITC; conditions: cited from earlier work
Sequence of V-ATPase a NT (Saccharomyces cerevisiae) (P32563 104-372): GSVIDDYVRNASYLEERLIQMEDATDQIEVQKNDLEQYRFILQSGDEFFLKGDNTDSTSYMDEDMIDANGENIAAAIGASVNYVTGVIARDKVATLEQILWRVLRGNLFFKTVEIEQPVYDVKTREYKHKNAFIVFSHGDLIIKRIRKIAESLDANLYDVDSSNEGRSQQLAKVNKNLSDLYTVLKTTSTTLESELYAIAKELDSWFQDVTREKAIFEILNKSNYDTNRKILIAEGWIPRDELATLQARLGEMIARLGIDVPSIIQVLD

Sequence of Human V-ATPase subunit C1 (human) (P21283 whole entry): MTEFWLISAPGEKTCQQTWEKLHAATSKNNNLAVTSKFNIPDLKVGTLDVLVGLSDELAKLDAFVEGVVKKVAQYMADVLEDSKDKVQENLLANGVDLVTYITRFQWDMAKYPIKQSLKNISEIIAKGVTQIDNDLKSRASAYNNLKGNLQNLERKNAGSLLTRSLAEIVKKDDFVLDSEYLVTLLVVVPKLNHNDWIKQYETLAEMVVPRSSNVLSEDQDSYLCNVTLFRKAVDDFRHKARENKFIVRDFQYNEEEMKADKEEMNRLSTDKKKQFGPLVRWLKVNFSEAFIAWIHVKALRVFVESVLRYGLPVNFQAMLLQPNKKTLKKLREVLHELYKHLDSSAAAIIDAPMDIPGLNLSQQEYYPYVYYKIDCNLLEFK
Sequence of Human V-ATPase subunit H (non-tagged) (human) (Q9UI12 whole entry): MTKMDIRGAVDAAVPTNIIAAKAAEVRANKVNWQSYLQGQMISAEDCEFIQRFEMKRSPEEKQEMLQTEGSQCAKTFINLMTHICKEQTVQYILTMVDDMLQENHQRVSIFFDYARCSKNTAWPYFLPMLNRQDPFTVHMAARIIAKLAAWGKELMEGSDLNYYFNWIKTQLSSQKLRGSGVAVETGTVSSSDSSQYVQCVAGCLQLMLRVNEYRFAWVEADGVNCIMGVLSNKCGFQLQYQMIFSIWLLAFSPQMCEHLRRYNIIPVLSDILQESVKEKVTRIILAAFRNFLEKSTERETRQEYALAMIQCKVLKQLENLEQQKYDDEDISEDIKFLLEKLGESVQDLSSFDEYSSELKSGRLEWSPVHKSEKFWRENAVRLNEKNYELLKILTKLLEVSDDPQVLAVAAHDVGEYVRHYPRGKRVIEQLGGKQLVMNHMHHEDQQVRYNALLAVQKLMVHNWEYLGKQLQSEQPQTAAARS
Sequence of N-terminal cytoplasmic domain of the a1 isoform of subunit a of human V-ATPase (residues 1-353) (human) (Q93050 1-353): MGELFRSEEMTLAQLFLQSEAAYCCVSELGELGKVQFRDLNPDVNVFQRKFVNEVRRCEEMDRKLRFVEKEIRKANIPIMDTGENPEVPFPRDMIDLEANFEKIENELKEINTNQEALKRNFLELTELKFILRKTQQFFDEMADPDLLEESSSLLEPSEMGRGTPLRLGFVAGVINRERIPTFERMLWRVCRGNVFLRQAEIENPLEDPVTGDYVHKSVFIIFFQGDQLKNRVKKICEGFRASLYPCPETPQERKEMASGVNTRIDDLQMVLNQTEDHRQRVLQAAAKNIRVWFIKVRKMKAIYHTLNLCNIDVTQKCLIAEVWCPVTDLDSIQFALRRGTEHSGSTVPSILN
Sequence of V-ATPase EG (P22203 2-233): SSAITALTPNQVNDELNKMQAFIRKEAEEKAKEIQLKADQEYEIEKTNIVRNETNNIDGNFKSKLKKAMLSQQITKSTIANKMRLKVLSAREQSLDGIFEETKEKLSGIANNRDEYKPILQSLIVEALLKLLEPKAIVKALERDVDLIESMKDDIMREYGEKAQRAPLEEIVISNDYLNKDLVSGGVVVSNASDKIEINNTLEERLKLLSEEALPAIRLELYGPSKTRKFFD
Sequence of V-ATPase EG (P48836 2-114, further chain): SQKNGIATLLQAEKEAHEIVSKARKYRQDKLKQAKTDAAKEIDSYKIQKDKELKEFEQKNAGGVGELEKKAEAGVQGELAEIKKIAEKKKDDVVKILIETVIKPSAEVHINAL
Sequence of V-ATPase C foot (P31412 2-157): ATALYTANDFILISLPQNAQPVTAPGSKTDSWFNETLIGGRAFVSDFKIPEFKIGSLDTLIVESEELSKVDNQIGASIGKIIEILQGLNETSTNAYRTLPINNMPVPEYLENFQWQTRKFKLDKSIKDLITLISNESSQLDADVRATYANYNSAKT
Sequence of V-ATPase C foot (P31412 278-392): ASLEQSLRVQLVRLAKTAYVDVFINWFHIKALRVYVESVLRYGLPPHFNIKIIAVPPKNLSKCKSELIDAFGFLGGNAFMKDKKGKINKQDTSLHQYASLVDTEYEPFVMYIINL

Row | Kd [2] | Substance | Kd [5] | also measured
1 | – | E1G1 heterodimer of human V-ATPase (subunits E1 and G1, co-expressed and co-purified) (from UniProt P36543 1-226; O75348 1-118) (complex) | – | Kd [1]: 210 nM
2 | 1400 nM | Human V-ATPase subunit C1 (from UniProt P21283 1-382) (natural protein) | – | –
3 | 360 nM | N-terminal cytoplasmic domain of the a1 isoform of subunit a of human V-ATPase (residues 1-353) (from UniProt Q93050 1-353) (domain or fragment) | – | response at 10 µM analyte [3]: 45 RU; Kd [4]: 3000 nM
4 | – | V-ATPase C foot (from UniProt P31412) | 22 µM | –
5 | – | V-ATPase EG (from UniProt P22203) | 33 µM | –

From publication PMC3569449
